Key:
[1] = molecular target: 天然人白介素-33 (natural human interleukin-33 from HFL-1 cell lysate) (human) (UniProt O95760); test: cell-based or functional assay
[2] = molecular target: T1, 人白介素-33 (human interleukin-33) (human, UniProt O95760 112-270); test: cell-based or functional assay
T1 sequence: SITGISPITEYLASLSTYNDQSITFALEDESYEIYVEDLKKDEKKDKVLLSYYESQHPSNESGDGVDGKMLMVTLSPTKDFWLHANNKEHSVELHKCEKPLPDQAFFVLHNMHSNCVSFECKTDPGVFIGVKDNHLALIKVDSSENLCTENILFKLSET

[3] = molecular target: T1, 人白介素-33 (human interleukin-33); test: SPR, Biacore T200, 25℃, antibody captured on Protein A chip, IL-33 as analyte, 1:1 model
[4] = molecular target: T2, 天然人白介素-33 (natural human interleukin-33 from HFL-1 cell lysate) (human, UniProt O95760 1-270, limits assumed); test: cell-based or functional assay
T2 sequence (looked up): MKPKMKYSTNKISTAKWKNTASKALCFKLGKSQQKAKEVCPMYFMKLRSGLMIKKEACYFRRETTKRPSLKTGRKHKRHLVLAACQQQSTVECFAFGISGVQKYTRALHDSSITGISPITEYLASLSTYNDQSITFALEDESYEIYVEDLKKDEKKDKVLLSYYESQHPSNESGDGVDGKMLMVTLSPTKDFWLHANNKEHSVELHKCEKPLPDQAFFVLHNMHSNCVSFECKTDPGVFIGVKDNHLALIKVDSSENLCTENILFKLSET

## Etokimab/ANB020 (antibody)
[1]
  抑制天然人白介素-33诱导HEK Blue IL-33细胞中NF-κB/AP-1信号转导 (SEAP reporter), IC50: 2.5 ng/mL
[2]
  中和人白介素-33诱导人全血释放IFN-γ, IC50: 31.9 ng/mL
  中和人白介素-33诱导的KU812细胞释放IL-5, IC50: 44 ng/mL
  抑制重组人白介素-33诱导HEK Blue IL-33细胞中NF-κB/AP-1信号转导 (SEAP reporter), IC50: 6.05 ng/mL
[3]
  Kd: 0.869 nM
  koff: 0.000369 s⁻¹
  kon: 424000 M⁻¹ s⁻¹

B1: QX007N(HZD78-70) (antibody, V domains shown)
VH: EVQLVESGGGLVQPGGSLRLSCAASGFSLSSYHMIWVRQAPGKGLEWVGVIYPNSNIYYATWAKGRFTISRDNSKNTLYLQMNSLRAEDTAVYYCARTIYVHVYSALSIWGQGTLVTVSS
VL: AFQMTQSPSSVSASVGDRVTITCQASESVLNEVSWYQQKPGKAPKLLIYFASKLASGVPSRFSGSGSGTDFTLTISSLQPEDFATYYCQQDWSMDNIDNAFGGGTKVEIKR
[4]
  抑制天然人白介素-33诱导HEK Blue IL-33细胞中NF-κB/AP-1信号转导 (SEAP reporter), IC50: 3.91 ng/mL
[2]
  中和人白介素-33诱导人全血释放IFN-γ, IC50: 16 ng/mL
  中和人白介素-33诱导的KU812细胞释放IL-5, IC50: 5.87 ng/mL
  抑制重组人白介素-33诱导HEK Blue IL-33细胞中NF-κB/AP-1信号转导 (SEAP reporter), IC50: 6.67 ng/mL
[3]
  Kd: 1.23 nM
  koff: 0.000481 s⁻¹
  kon: 392000 M⁻¹ s⁻¹
